Results reported in article doi:10.1101/2020.07.27.223248 (bioRxiv, 2020).

Target: the molecule itself
Test: cryo-EM structure

B1: FljK T103C N130S, straightened flagellar filament (natural protein, C. crescentus, UniProt P18913 1-273, looked up)
chain: MALNSINTNAGAMIALQNLNGTNSELTTVQQRINTGKKIASAKDNGAIWATAKNQSATAASMNAVKDSLQRGQSTIDVALAAGDTITDLLGKMKEKALAASDCSLNTASFNALKSDFDSLRDQIEKAATSAKFNGVSIADGSTTKLTFLANSDGSGFTVNAKTISLAGIGLTTTSTFTTAAAAKTMIGTIDTALQTATNKLASLGTSSVGLDTHLTFVGKLQDSLDAGVGNLVDADLAKESAKLQSLQTKQQLGVQALSIANQSSSSILSLFR
modifications: post-translational modifications on conserved surface threonine residues, likely O-linked glycans (positions not given)
B1: binds.
